Reference: the supplement of paper PMC10724198
± gives the standard deviation of the averaged measurements.

test system: Saccharomyces cerevisiae; assay: protein stability index of tFT-peptide fusion (C-terminal peptide) (PSI (0-1 scale)); higher = more stable (slower turnover); details: genetic background: wild type; temperature: 30 C
Procedure: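 Multiplexed protein stability (MPS) profiling in S. cerevisiae. Random 12-aa peptides (tFT-X12 library) are fused to the C-terminus of a sfGFP-mCherry tandem fluorescent timer, after mCherry and a GGGS linker. Cells are FACS-sorted into 8 mCherry/sfGFP bins and deep-sequenced. The protein stability index (PSI) is the read-weighted bin average, scaled from 0 (unstable) to 1 (stable). Only peptides with >10 reads are reported; cells were grown at 30 °C in SC-His with glucose.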
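Further: PSI is a weighted mean of sequencing reads over stability bins, variants kept only with over 10 reads, mCherry proximal and sfGFP distal, peptide attached via GGGS linker.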

KRRAERKKRSKG and KRRRYKEKPRKR are within error of each other in protein stability index: 0.6731 ± 0.006 for the first, 0.665 ± 0.12 for the second.

KRWKSKYELGST and KRYRKGGRPMRA are within error of each other in protein stability index: 0.68 ± 0.063 for the first, 0.66 ± 0.06 for the second.

First: KSARSYSMEGEI
Second: KSFQLEHKYTRN
The protein stability index of the first is lower: 0.673 ± 0.016 for the first, 0.737 ± 0.029 for the second.

KSGGWLWGGGGG and KSGHYVVSYSGV are within error of each other in protein stability index: 0.663 ± 0.054 for the first, 0.678 ± 0.0045 for the second.

KSPDSLDIRFHT and KSQATELKKVNG are within error of each other in protein stability index: 0.714 ± 0.13 for the first, 0.65 ± 0.037 for the second.

KSRGYSKQQIRG and KSSNYSTEDVKI are within error of each other in protein stability index: 0.72 ± 0.015 for the first, 0.697 ± 0.014 for the second.

KSSSVRQGWEGC and KTGATAIKKINK are within error of each other in protein stability index: 0.728 ± 0.081 for the first, 0.695 ± 0.039 for the second.

KTKEYKYEKRKT and KTKKIMPEQIKK are within error of each other in protein stability index: 0.596 ± 0.027 for the first, 0.616 ± 0.017 for the second.

KTKKKKEQTKKK and KTKKKYENRKKK are within error of each other in protein stability index: 0.808 ± 0.15 for the first, 0.684 ± 0.0094 for the second.

KTKKNKQKSKKK and KTKKQEKNNKSK are within error of each other in protein stability index: 0.705 ± 0.034 for the first, 0.685 ± 0.029 for the second.

KTLRRGYDWLQG and KTLVRSFSIIEG are within error of each other in protein stability index: 0.681 ± 0.038 for the first, 0.657 ± 0.026 for the second.

KTRHRQKDVTTH and KTRKNNSKKNTK are within error of each other in protein stability index: 0.713 ± 0.055 for the first, 0.688 ± 0.019 for the second.

KTSYDQTLEMGL and KTTRTGRHTAPN are within error of each other in protein stability index: 0.62 ± 0.04 for the first, 0.676 ± 0.028 for the second.

KTTVENEQRKEK and KVDRDRTGIHWS are within error of each other in protein stability index: 0.698 ± 0.079 for the first, 0.671 ± 0.061 for the second.

Going from KVHQHPFLHALS to KVIKEQNKKIDR, the protein stability index falls from 0.695 ± 0.012 to 0.641 ± 0.026.

Going from KVNWVKAAKKNA to KVSTWKISRISG, the protein stability index falls from 0.626 ± 0.019 to 0.55 ± 0.026.

KWEGKKINKKRE and KWGVWLWVGGGG are within error of each other in protein stability index: 0.699 ± 0.077 for the first, 0.763 ± 0.056 for the second.

Compared with KYEKILLTVAPE, KYLPSVVYIYRL is lower in protein stability index: 0.672 ± 0.019 for the first, 0.531 ± 0.023 for the second.

KYMENQLSYDAD and LACGWCVAVYRG are within error of each other in protein stability index: 0.646 ± 0.051 for the first, 0.644 ± 0.049 for the second.

Compared with LAFFAPCLLPPL, LAFFPPPLPPSS is higher in protein stability index: 0.557 ± 0.048 for the first, 0.698 ± 0.064 for the second.

LAGGGARWGVVR and LAGISSNRHLRR are within error of each other in protein stability index: 0.659 ± 0.033 for the first, 0.753 ± 0.067 for the second.

Going from LAGRSVVLLWMG to LALLGPCPPPIH, the protein stability index rises from 0.602 ± 0.021 to 0.741 ± 0.083.

LAPLTLLSPLPR and LAPNPGVLFCGI are within error of each other in protein stability index: 0.677 ± 0.034 for the first, 0.656 ± 0.044 for the second.

LAPPPRPPLAPP and LAPRPPAPTPTL are within error of each other in protein stability index: 0.637 ± 0.03 for the first, 0.603 ± 0.053 for the second.

LAPSWVGYVSGH and LARLTRHSKLGL are within error of each other in protein stability index: 0.7 ± 0.069 for the first, 0.712 ± 0.066 for the second.

First: LASVYLLLRFSE
Second: LAVVGGVEKKYH
The protein stability index of the first is lower: 0.5266 ± 0.0012 for the first, 0.676 ± 0.055 for the second.

LAVVSTRCRLEL and LCDACLSLVFLW are within error of each other in protein stability index: 0.694 ± 0.062 for the first, 0.629 ± 0.031 for the second.

Compared with LCGSSVSHLVLP, LCPSFAIALSSD is lower in protein stability index: 0.7125 ± 0.0054 for the first, 0.692 ± 0.013 for the second.

LCRCVFFGLWGV and LCSLSLCSYSIF are within error of each other in protein stability index: 0.621 ± 0.031 for the first, 0.6 ± 0.0053 for the second.

LCTYVMFACFFF and LCYTDMIRGCVF are within error of each other in protein stability index: 0.641 ± 0.1 for the first, 0.65 ± 0.021 for the second.

Going from LDELTRRAEGCG to LDGGYGRHGVGD, the protein stability index rises from 0.596 ± 0.008 to 0.6765 ± 0.00099.

LDIGVADAQRML and LEGTGDRFALCG are within error of each other in protein stability index: 0.701 ± 0.14 for the first, 0.659 ± 0.023 for the second.

LEIRKKGNKIRE and LEKYIKNYINKR are within error of each other in protein stability index: 0.6 ± 0.041 for the first, 0.615 ± 0.016 for the second.

First: LERTTSNKYEER
Second: LESARDICAFAD
The protein stability index of the first is higher: 0.7234 ± 0.0061 for the first, 0.6754 ± 0.005 for the second.

LESSAKSRTMVL and LEVFSGNQSVLH are within error of each other in protein stability index: 0.721 ± 0.014 for the first, 0.645 ± 0.094 for the second.

Going from LFAHSLRLSFAC to LFALLSGIDRCL, the protein stability index falls from 0.7054 ± 0.0031 to 0.634 ± 0.012.

LFAPPACLPSPA and LFFGSNLFLLAL are within error of each other in protein stability index: 0.64 ± 0.014 for the first, 0.595 ± 0.043 for the second.

Going from LFFNLLLFFSFI to LFFSLSLVVPTG, the protein stability index rises from 0.488 ± 0.018 to 0.633 ± 0.095.

LFGAVGGGVEVG and LFGVRFTLGYLF are within error of each other in protein stability index: 0.668 ± 0.12 for the first, 0.554 ± 0.016 for the second.

Going from LFLGSFSRSLWP to LFLLYPRLTLPL, the protein stability index falls from 0.755 ± 0.015 to 0.621 ± 0.023.

LFLPLPGPLRSS gave a protein stability index of 0.79 ± 0.13.
